Source: patent US20140087995A1 (published 2014)
Numbered stars: 1 amine (or outer) side, 2 acyl side, 3 side chain; on linkers, the order of the positions; unused ones are H or OH. Bridge positions count the residues as written; N and C are the ends. Side chains are listed from the residue outwards. Ends that are not written are not given here. * marks the point of attachment. C20 diacid = O=C(O)CCCCCCCCCCCCCCCCCCC(=O)*; γGlu = O=C(O)[C@H](CCC(=O)[*:2])N[*:1]; AEEA = NCCOCCOCC(=O)O

T1: rat amylin receptor (rat calcitonin receptor + rat RAMP 3) (rat, UniProt P32214 25-516; Q9JJ73 23-147)
T1 construct: whole, on cells; Used as membranes prepared from BHK tk'ts 13 cells transiently transfected with rat calcitonin receptor and rat RAMP 3 (Assay VI); also called rAmylin-R; rat amylin 3(a) receptor
T1 sequence (looked up) 1: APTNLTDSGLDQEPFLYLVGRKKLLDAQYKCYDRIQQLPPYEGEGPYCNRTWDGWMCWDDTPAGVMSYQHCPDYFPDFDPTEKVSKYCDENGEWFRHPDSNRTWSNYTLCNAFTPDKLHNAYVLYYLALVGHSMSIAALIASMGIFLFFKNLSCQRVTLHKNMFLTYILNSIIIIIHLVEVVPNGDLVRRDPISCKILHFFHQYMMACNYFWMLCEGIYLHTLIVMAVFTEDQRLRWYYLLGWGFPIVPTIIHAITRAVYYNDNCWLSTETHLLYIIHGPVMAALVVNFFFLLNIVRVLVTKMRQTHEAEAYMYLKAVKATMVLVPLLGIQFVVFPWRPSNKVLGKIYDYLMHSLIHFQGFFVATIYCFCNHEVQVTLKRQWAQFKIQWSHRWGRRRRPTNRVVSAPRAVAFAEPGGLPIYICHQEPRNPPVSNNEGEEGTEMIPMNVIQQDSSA
T1 sequence (looked up) 2: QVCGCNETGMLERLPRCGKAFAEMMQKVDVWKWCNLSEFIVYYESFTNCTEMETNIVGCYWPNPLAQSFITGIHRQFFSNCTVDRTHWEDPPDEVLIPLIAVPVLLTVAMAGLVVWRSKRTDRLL

T2: rat calcitonin receptor (rat, UniProt P32214 25-516)
T2 construct: whole, on cells; Used as membranes prepared from BHK tk'ts 13 cells transiently transfected with the rat calcitonin receptor (Assay VIII); also called rCTR; rat calcitonin (a) receptor
T2 sequence (looked up): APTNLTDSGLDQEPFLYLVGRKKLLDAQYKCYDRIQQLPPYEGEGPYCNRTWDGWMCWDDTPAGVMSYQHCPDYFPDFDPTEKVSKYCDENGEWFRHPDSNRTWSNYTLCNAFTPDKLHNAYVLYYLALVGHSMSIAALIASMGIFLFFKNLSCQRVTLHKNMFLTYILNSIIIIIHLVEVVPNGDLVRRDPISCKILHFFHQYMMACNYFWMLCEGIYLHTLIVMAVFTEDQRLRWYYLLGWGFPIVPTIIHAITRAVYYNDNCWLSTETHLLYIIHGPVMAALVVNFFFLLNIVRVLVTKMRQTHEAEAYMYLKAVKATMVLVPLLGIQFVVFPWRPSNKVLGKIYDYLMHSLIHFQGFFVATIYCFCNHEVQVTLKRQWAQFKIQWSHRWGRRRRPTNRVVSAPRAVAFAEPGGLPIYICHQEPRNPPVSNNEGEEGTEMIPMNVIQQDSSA

T3: human calcitonin receptor (human, UniProt P30988 25-474)
T3 construct: whole, on cells; Used as membranes prepared from a BHK tk'ts 13 cell line stably transfected with the human calcitonin receptor (Assay VII); also called hCTR; hCT
T3 sequence (looked up): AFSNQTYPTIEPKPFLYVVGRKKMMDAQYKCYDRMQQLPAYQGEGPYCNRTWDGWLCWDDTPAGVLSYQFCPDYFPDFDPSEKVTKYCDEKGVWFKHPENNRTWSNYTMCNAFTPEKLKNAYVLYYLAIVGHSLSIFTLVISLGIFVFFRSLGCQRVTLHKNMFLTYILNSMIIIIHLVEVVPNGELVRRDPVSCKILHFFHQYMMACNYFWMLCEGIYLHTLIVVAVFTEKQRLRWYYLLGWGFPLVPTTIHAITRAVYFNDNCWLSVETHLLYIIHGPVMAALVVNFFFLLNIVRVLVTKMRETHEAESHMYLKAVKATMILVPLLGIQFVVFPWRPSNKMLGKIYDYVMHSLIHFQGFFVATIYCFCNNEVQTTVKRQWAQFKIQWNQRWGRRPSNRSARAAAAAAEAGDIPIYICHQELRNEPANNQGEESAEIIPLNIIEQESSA


How the values were obtained:
[1] = target: T1, rat amylin receptor (rat calcitonin …); assay: SPA competition with 125I-rat amylin, membranes of BHK cells with rat CTR + rat RAMP3 (Assay VI)
rat calcitonin receptor [2] = target: T2, rat calcitonin receptor; assay: IC50 on rat CTR divided by IC50 on rat amylin receptor (Assays VIII/VI)
[3] = target: T3, human calcitonin receptor; assay: IC50 on human CTR divided by IC50 on human amylin receptor (Assays VII/V)
Method in brief: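 Scintillation proximity competition binding on cell membranes at 35 ng/μL with SPA beads, in 50 mM Hepes pH 7.4, 1 mM CaCl2, 5 mM MgCl₂, 0.1% OA, 0.02% Tween20. Incubated 120 min at 25° C with shaking. IC₅₀ from one-site competition fit.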

rat calcitonin receptor [4] = target: T2, rat calcitonin receptor; assay: SPA competition with 125I-calcitonin, membranes of BHK cells with rat CTR (Assay VIII)

Row | Binder | IC50 [1] | Ratio rCT/rAmylin binding (rat calcitonin receptor [2]) | Ratio hCT/hAmylin binding [3] | IC50 (rat calcitonin receptor [4])
1 | K([AEEA-γGlu-C20 diacid])CNTATCATQRLANFLRHSSPNFGAIPSSTNVGPNTY-NH2 (disulfide 2-7; N-terminus assumed; SMILES CC[C@H](C)[C@H](NC(=O)[C@H](C)NC(=O)CNC(=O)[C@H](Cc1ccccc1)NC(=O)[C@H](CC(N)=O)NC(=O)[C@@H]1CCCN1C(=O)[C@H](CO)NC(=O)[C@H](CO)NC(=O)[C@H](Cc1c[nH]cn1)NC(=O)[C@H](CCCNC(=N)N)NC(=O)[C@H](CC(C)C)NC(=O)[C@H](Cc1ccccc1)NC(=O)[C@H](CC(N)=O)NC(=O)[C@H](C)NC(=O)[C@H](CC(C)C)NC(=O)[C@H](CCCNC(=N)N)NC(=O)[C@H](CCC(N)=O)NC(=O)[C@@H](NC(=O)[C@H](C)NC(=O)[C@@H]1CSSC[C@H](NC(=O)[C@@H](N)CCCCNC(=O)COCCOCCNC(=O)CC[C@H](NC(=O)CCCCCCCCCCCCCCCCCCC(=O)O)C(=O)O)C(=O)N[C@@H](CC(N)=O)C(=O)N[C@@H]([C@@H](C)O)C(=O)N[C@@H](C)C(=O)N[C@@H]([C@@H](C)O)C(=O)N1)[C@@H](C)O)C(=O)N1CCC[C@H]1C(=O)N[C@@H](CO)C(=O)N[C@@H](CO)C(=O)N[C@H](C(=O)N[C@@H](CC(N)=O)C(=O)N[C@H](C(=O)NCC(=O)N1CCC[C@H]1C(=O)N[C@@H](CC(N)=O)C(=O)N[C@H](C(=O)N[C@@H](Cc1ccc(O)cc1)C(N)=O)[C@@H](C)O)C(C)C)[C@@H](C)O, Analogue of human amylin; also called compound 50) | 0.069 nM | 81.7 | 36 | 5.63 nM
2 | K([AEEA-γGlu-C20 diacid])CNTATCATQRLAHFLRHSSPNFGAIPSSTNVGHNTY-NH2 (disulfide 2-7; N-terminus assumed; SMILES CC[C@H](C)[C@H](NC(=O)[C@H](C)NC(=O)CNC(=O)[C@H](Cc1ccccc1)NC(=O)[C@H](CC(N)=O)NC(=O)[C@@H]1CCCN1C(=O)[C@H](CO)NC(=O)[C@H](CO)NC(=O)[C@H](Cc1c[nH]cn1)NC(=O)[C@H](CCCNC(=N)N)NC(=O)[C@H](CC(C)C)NC(=O)[C@H](Cc1ccccc1)NC(=O)[C@H](Cc1c[nH]cn1)NC(=O)[C@H](C)NC(=O)[C@H](CC(C)C)NC(=O)[C@H](CCCNC(=N)N)NC(=O)[C@H](CCC(N)=O)NC(=O)[C@@H](NC(=O)[C@H](C)NC(=O)[C@@H]1CSSC[C@H](NC(=O)[C@@H](N)CCCCNC(=O)COCCOCCNC(=O)CC[C@H](NC(=O)CCCCCCCCCCCCCCCCCCC(=O)O)C(=O)O)C(=O)N[C@@H](CC(N)=O)C(=O)N[C@@H]([C@@H](C)O)C(=O)N[C@@H](C)C(=O)N[C@@H]([C@@H](C)O)C(=O)N1)[C@@H](C)O)C(=O)N1CCC[C@H]1C(=O)N[C@@H](CO)C(=O)N[C@@H](CO)C(=O)N[C@H](C(=O)N[C@@H](CC(N)=O)C(=O)N[C@H](C(=O)NCC(=O)N[C@@H](Cc1c[nH]cn1)C(=O)N[C@@H](CC(N)=O)C(=O)N[C@H](C(=O)N[C@@H](Cc1ccc(O)cc1)C(N)=O)[C@@H](C)O)C(C)C)[C@@H](C)O, Analogue of human amylin; also called compound 80) | 1.67 nM | 36.2 | 68.1 | 60.4 nM

The remaining binders from weak to strong by IC50 [1], led by results:

Row | IC50 [1] | Ratio rCT/rAmylin binding (rat calcitonin receptor [2]) | Ratio hCT/hAmylin binding [3] | IC50 (rat calcitonin receptor [4]) | Binder
3 | 0.842 nM | 39.7 | 66.7 | 33.4 nM | K([AEEA-γGlu-C20 diacid])CNTATCATQRLAHFLRHSSPNFGAIPSSTPVGSNTY-NH2 (disulfide 2-7; N-terminus assumed; SMILES CC[C@H](C)[C@H](NC(=O)[C@H](C)NC(=O)CNC(=O)[C@H](Cc1ccccc1)NC(=O)[C@H](CC(N)=O)NC(=O)[C@@H]1CCCN1C(=O)[C@H](CO)NC(=O)[C@H](CO)NC(=O)[C@H](Cc1c[nH]cn1)NC(=O)[C@H](CCCNC(=N)N)NC(=O)[C@H](CC(C)C)NC(=O)[C@H](Cc1ccccc1)NC(=O)[C@H](Cc1c[nH]cn1)NC(=O)[C@H](C)NC(=O)[C@H](CC(C)C)NC(=O)[C@H](CCCNC(=N)N)NC(=O)[C@H](CCC(N)=O)NC(=O)[C@@H](NC(=O)[C@H](C)NC(=O)[C@@H]1CSSC[C@H](NC(=O)[C@@H](N)CCCCNC(=O)COCCOCCNC(=O)CC[C@H](NC(=O)CCCCCCCCCCCCCCCCCCC(=O)O)C(=O)O)C(=O)N[C@@H](CC(N)=O)C(=O)N[C@@H]([C@@H](C)O)C(=O)N[C@@H](C)C(=O)N[C@@H]([C@@H](C)O)C(=O)N1)[C@@H](C)O)C(=O)N1CCC[C@H]1C(=O)N[C@@H](CO)C(=O)N[C@@H](CO)C(=O)N[C@H](C(=O)N1CCC[C@H]1C(=O)N[C@H](C(=O)NCC(=O)N[C@@H](CO)C(=O)N[C@@H](CC(N)=O)C(=O)N[C@H](C(=O)N[C@@H](Cc1ccc(O)cc1)C(N)=O)[C@@H](C)O)C(C)C)[C@@H](C)O, Analogue of human amylin; also called compound 61)
4 | 0.276 nM | 162 | 32 | 44.8 nM | K([AEEA-γGlu-C20 diacid])CNTATCATQRLAGFLRHSSPNFGAIPSSTPVGSNTY-NH2 (disulfide 2-7; N-terminus assumed; SMILES CC[C@H](C)[C@H](NC(=O)[C@H](C)NC(=O)CNC(=O)[C@H](Cc1ccccc1)NC(=O)[C@H](CC(N)=O)NC(=O)[C@@H]1CCCN1C(=O)[C@H](CO)NC(=O)[C@H](CO)NC(=O)[C@H](Cc1c[nH]cn1)NC(=O)[C@H](CCCNC(=N)N)NC(=O)[C@H](CC(C)C)NC(=O)[C@H](Cc1ccccc1)NC(=O)CNC(=O)[C@H](C)NC(=O)[C@H](CC(C)C)NC(=O)[C@H](CCCNC(=N)N)NC(=O)[C@H](CCC(N)=O)NC(=O)[C@@H](NC(=O)[C@H](C)NC(=O)[C@@H]1CSSC[C@H](NC(=O)[C@@H](N)CCCCNC(=O)COCCOCCNC(=O)CC[C@H](NC(=O)CCCCCCCCCCCCCCCCCCC(=O)O)C(=O)O)C(=O)N[C@@H](CC(N)=O)C(=O)N[C@@H]([C@@H](C)O)C(=O)N[C@@H](C)C(=O)N[C@@H]([C@@H](C)O)C(=O)N1)[C@@H](C)O)C(=O)N1CCC[C@H]1C(=O)N[C@@H](CO)C(=O)N[C@@H](CO)C(=O)N[C@H](C(=O)N1CCC[C@H]1C(=O)N[C@H](C(=O)NCC(=O)N[C@@H](CO)C(=O)N[C@@H](CC(N)=O)C(=O)N[C@H](C(=O)N[C@@H](Cc1ccc(O)cc1)C(N)=O)[C@@H](C)O)C(C)C)[C@@H](C)O, Analogue of human amylin; also called compound 71)
5 | 0.234 nM | 122 | 64.4 | 28.5 nM | K([AEEA-γGlu-C20 diacid])CNTATCATQRLAHFLRHSSPNFGAIPSSTNVGPNTY-NH2 (disulfide 2-7; N-terminus assumed; SMILES CC[C@H](C)[C@H](NC(=O)[C@H](C)NC(=O)CNC(=O)[C@H](Cc1ccccc1)NC(=O)[C@H](CC(N)=O)NC(=O)[C@@H]1CCCN1C(=O)[C@H](CO)NC(=O)[C@H](CO)NC(=O)[C@H](Cc1c[nH]cn1)NC(=O)[C@H](CCCNC(=N)N)NC(=O)[C@H](CC(C)C)NC(=O)[C@H](Cc1ccccc1)NC(=O)[C@H](Cc1c[nH]cn1)NC(=O)[C@H](C)NC(=O)[C@H](CC(C)C)NC(=O)[C@H](CCCNC(=N)N)NC(=O)[C@H](CCC(N)=O)NC(=O)[C@@H](NC(=O)[C@H](C)NC(=O)[C@@H]1CSSC[C@H](NC(=O)[C@@H](N)CCCCNC(=O)COCCOCCNC(=O)CC[C@H](NC(=O)CCCCCCCCCCCCCCCCCCC(=O)O)C(=O)O)C(=O)N[C@@H](CC(N)=O)C(=O)N[C@@H]([C@@H](C)O)C(=O)N[C@@H](C)C(=O)N[C@@H]([C@@H](C)O)C(=O)N1)[C@@H](C)O)C(=O)N1CCC[C@H]1C(=O)N[C@@H](CO)C(=O)N[C@@H](CO)C(=O)N[C@H](C(=O)N[C@@H](CC(N)=O)C(=O)N[C@H](C(=O)NCC(=O)N1CCC[C@H]1C(=O)N[C@@H](CC(N)=O)C(=O)N[C@H](C(=O)N[C@@H](Cc1ccc(O)cc1)C(N)=O)[C@@H](C)O)C(C)C)[C@@H](C)O, Analogue of human amylin; also called compound 68)
